{
  "source": "patent US20040258705A1",
  "about": "“Use of lectins to promote oligomerization of glycoproteins and antigenic molecules” (Antigenics Inc., priority 2003, published 2004)",
  "key": {"gp96": {"molecular_target": "gp96 (Mus musculus, UniProt P08113)", "experiment": "Analytical SEC of Meth A gp96 with added Con A", "format": "binding, murine", "method": "To verify gp96 was oligomerized with Con A, a common homogenate from Meth A-induced murine fibrosarcoma tissue was prepared and processed using a process that included Con A and DEAE column chromatography. The final purified gp96 preparation was divided in two. To one half of the material, exogenous con A was added to a final concentration of 50 ug/mL; buffer alone was added to the other as a control, both samples incubated at 37° C. for 2 hr and then fractionated by SEC (Superdex 200). Individual fractions were analyzed by SDS-PAGE, and by gp96- and con A-specific ELISA. Analytical data for material […] is shown in the left panel; that to which con A was added to the right. In the left panel the peak of gp96 is in fraction 5 and con A levels as detected by specific ELISA are low. In the right panel (con A added) two peaks of gp96 are evident as shown by SDS-PAGE (inset; peak fractions 3 (arrow) and 5) and gp96 ELISA (fractions 3 and 5) as well as a distinct peak of Con A centered on fraction 3.\nCon A was added (50 ug/mL final) to an aliquot of this gp96 sample (conc. 500 ug/ml), the sample incubated at RT and hourly samples were taken (T=1 through T=5) and analyzed by SEC. A sample comprising con A alone was also run. […] Each sample was then re-analyzed by SEC. […]"}, "[1]": {"conditions": "Sigma lectin list; cited from earlier work"}, "Meth A cells": {"system": "Meth A cells", "experiment": "In vivo Meth A tumor inhibition (tumor protection / rejection) assay", "set-up": "species or system BALB/c mice", "conditions": "for tumor rejection activity, Con A added in process or to final product: in process 30 and 300 μg/ml, following purification 30 μg/ml", "method": "(§1) In vivo Meth A growth inhibition assay: BALB/c mice (n=30/group) were immunized on day 0 and day 7 with 10 or 50 μg of gp96 intradermally in the flank. On study day 14, mice were challenged with 1×10^5 Meth A cells intradermally in a total volume of 100 μl. Growing tumors were monitored during the subsequent four weeks. All animals were euthanized on study day 41 after a final tumor measurement. Data was reported as percentage of animals that are tumor-free on study day 41. Control groups included un-immunized (diluent—negative control) and immunized with irradiated Meth A cells (positive control).\nas §1, with “(n=10/group)” for “(n=30/group)”, “10” for “10 or 50”, “gl.” for “μl.”\nas §1, with “(n=10/group)” for “(n=30/group)”, “10” for “10 or 50”\nas §1, with “mice (n=10/group)” for “mice (n=30/group)”, “with 0.3” for “with 10”, “or 3” for “or 50”, “gp96 alone or in combination with Con A” for “gp96”"}},
  "note": "“Also recorded” adds a separate entry of the source.",
  "data": [
    {"molecule": "CO[C@H]1O[C@H](CO)[C@@H](O)[C@H](O)[C@@H]1O", "note": "[α-MM, Methyl α-D-Mannopyranoside, reference compound]", "values": [
      {"measurement": "effect on high molecular weight gp96-Con A complex in SEC", "setting": "gp96; equal volume of PBS containing 10% α-MM added to 5 hr gp96 + Con A sample", "result": "dissociated the high molecular weight complex"}
    ]},
    {"molecule": "Concanavalin A [Con A]", "values": [
      {"measurement": "Specificity Sugar", "setting": "[1]", "result": "α-man, α-glc"},
      {"measurement": "elution position of gp96 in SEC", "setting": "gp96; Con A 50 ug/mL added to Meth A gp96, Superdex 200 or superose 6", "result": "mediated a shift in the elution position of the gp96 dimer peak"}
    ]},
    {"molecule": "PHA-E: Phaseolus Vulgaris lectin, Sigma product", "values": [
      {"measurement": "Specificity Sugar", "setting": "[1]", "result": "oligosaccharide"}
    ]},
    {"molecule": "PHA-L: Phaseolus Vulgaris lectin, Sigma product", "values": [
      {"measurement": "Specificity Sugar", "setting": "[1]", "result": "oligosaccharide"}
    ]},
    {"molecule": "HSPPC-96 + Con A (in process): Meth A derived gp96 with Con A added during the purification process, before the DEAE column (protein, UniProt P08113 22-802, looked up, tumor-derived; Con A added, Meth A derived gp96 with Con A added during the purification process, before the DEAE column) Endoplasmin: DDEVDVDGTVEEDLGKSREGSRTDDEVVQREEEAIQLDGLNASQIRELREKSEKFAFQAEVNRMMKLIINSLYKNKEIFLRELISNASDALDKIRLISLTDENALAGNEELTVKIKCDKEKNLLHVTDTGVGMTREELVKNLGTIAKSGTSEFLNKMTEAQEDGQSTSELIGQFGVGFYSAFLVADKVIVTSKHNNDTQHIWESDSNEFSVIADPRGNTLGRGTTITLVLKEEASDYLELDTIKNLVRKYSQFINFPIYVWSSKTETVEEPLEEDEAAKEEKEESDDEAAVEEEEEEKKPKTKKVEKTVWDWELMNDIKPIWQRPSKEVEEDEYKAFYKSFSKESDDPMAYIHFTAEGEVTFKSILFVPTSAPRGLFDEYGSKKSDYIKLYVRRVFITDDFHDMMPKYLNFVKGVVDSDDLPLNVSRETLQQHKLLKVIRKKLVRKTLDMIKKIADEKYNDTFWKEFGTNIKLGVIEDHSNRTRLAKLLRFQSSHHSTDITSLDQYVERMKEKQDKIYFMAGSSRKEAESSPFVERLLKKGYEVIYLTEPVDEYCIQALPEFDGKRFQNVAKEGVKFDESEKTKESREATEKEFEPLLNWMKDKALKDKIEKAVVSQRLTESPCALVASQYGWSGNMERIMKAQAYQTGKDISTNYYASQKKTFEINPRHPLIRDMLRRIKEDEDDKTVMDLAVVLFETATLRSGYLLPDTKAYGDRIERMLRLSLNIDPEAQVEEEPEEEPEDTSEDAEDSEQDEGEEMDAGTEEEEEETEKESTEKDEL", "values": [
      {"measurement": "tumor rejection activity, Con A added in process at graded levels", "setting": "Meth A cells; Con A 3, 10, 30, 100, 300 ug/ml added before DEAE, 10 μg gp96, tumor-free on day 41", "result": "titratable increase in the tumor rejection activity"},
      {"measurement": "tumor rejection activity, Con A added in process or to final product", "setting": "Meth A cells; 10 μg gp96", "result": "increase in the tumor rejection activity; also recorded: increases the tumor rejection activity"}
    ]},
    {"molecule": "HSPPC-96 + Con A (final product): Meth A derived gp96 purified by standard procedure with Con A (30 ug/mL) added following purification (protein, UniProt P08113 22-802, looked up, tumor-derived; Con A added) Endoplasmin: DDEVDVDGTVEEDLGKSREGSRTDDEVVQREEEAIQLDGLNASQIRELREKSEKFAFQAEVNRMMKLIINSLYKNKEIFLRELISNASDALDKIRLISLTDENALAGNEELTVKIKCDKEKNLLHVTDTGVGMTREELVKNLGTIAKSGTSEFLNKMTEAQEDGQSTSELIGQFGVGFYSAFLVADKVIVTSKHNNDTQHIWESDSNEFSVIADPRGNTLGRGTTITLVLKEEASDYLELDTIKNLVRKYSQFINFPIYVWSSKTETVEEPLEEDEAAKEEKEESDDEAAVEEEEEEKKPKTKKVEKTVWDWELMNDIKPIWQRPSKEVEEDEYKAFYKSFSKESDDPMAYIHFTAEGEVTFKSILFVPTSAPRGLFDEYGSKKSDYIKLYVRRVFITDDFHDMMPKYLNFVKGVVDSDDLPLNVSRETLQQHKLLKVIRKKLVRKTLDMIKKIADEKYNDTFWKEFGTNIKLGVIEDHSNRTRLAKLLRFQSSHHSTDITSLDQYVERMKEKQDKIYFMAGSSRKEAESSPFVERLLKKGYEVIYLTEPVDEYCIQALPEFDGKRFQNVAKEGVKFDESEKTKESREATEKEFEPLLNWMKDKALKDKIEKAVVSQRLTESPCALVASQYGWSGNMERIMKAQAYQTGKDISTNYYASQKKTFEINPRHPLIRDMLRRIKEDEDDKTVMDLAVVLFETATLRSGYLLPDTKAYGDRIERMLRLSLNIDPEAQVEEEPEEEPEDTSEDAEDSEQDEGEEMDAGTEEEEEETEKESTEKDEL", "values": [
      {"measurement": "tumor rejection activity, Con A added in process or to final product", "setting": "Meth A cells; 10 μg gp96", "result": "increase in the tumor rejection activity; also recorded: increases the tumor rejection activity"}
    ]},
    {"molecule": "scFv-purified Meth A gp96 + Con A: Meth A derived gp96 from anti-gp96 scFv immunoaffinity column, Con A added (protein, UniProt P08113 22-802, looked up, tumor-derived; Con A added) Endoplasmin: DDEVDVDGTVEEDLGKSREGSRTDDEVVQREEEAIQLDGLNASQIRELREKSEKFAFQAEVNRMMKLIINSLYKNKEIFLRELISNASDALDKIRLISLTDENALAGNEELTVKIKCDKEKNLLHVTDTGVGMTREELVKNLGTIAKSGTSEFLNKMTEAQEDGQSTSELIGQFGVGFYSAFLVADKVIVTSKHNNDTQHIWESDSNEFSVIADPRGNTLGRGTTITLVLKEEASDYLELDTIKNLVRKYSQFINFPIYVWSSKTETVEEPLEEDEAAKEEKEESDDEAAVEEEEEEKKPKTKKVEKTVWDWELMNDIKPIWQRPSKEVEEDEYKAFYKSFSKESDDPMAYIHFTAEGEVTFKSILFVPTSAPRGLFDEYGSKKSDYIKLYVRRVFITDDFHDMMPKYLNFVKGVVDSDDLPLNVSRETLQQHKLLKVIRKKLVRKTLDMIKKIADEKYNDTFWKEFGTNIKLGVIEDHSNRTRLAKLLRFQSSHHSTDITSLDQYVERMKEKQDKIYFMAGSSRKEAESSPFVERLLKKGYEVIYLTEPVDEYCIQALPEFDGKRFQNVAKEGVKFDESEKTKESREATEKEFEPLLNWMKDKALKDKIEKAVVSQRLTESPCALVASQYGWSGNMERIMKAQAYQTGKDISTNYYASQKKTFEINPRHPLIRDMLRRIKEDEDDKTVMDLAVVLFETATLRSGYLLPDTKAYGDRIERMLRLSLNIDPEAQVEEEPEEEPEDTSEDAEDSEQDEGEEMDAGTEEEEEETEKESTEKDEL", "values": [
      {"measurement": "tumor rejection activity, immunoaffinity (scFv) purified gp96 with Con A", "setting": "Meth A cells; 0.3 or 3 μg gp96 alone or in combination with Con A", "result": "increases the tumor rejection activity"}
    ]},
    {"molecule": "Pseudomonas aeruginosa (PA-I): lectin, Sigma product (protein, UniProt Q05097 2-122, looked up) PA-I galactophilic lectin: AWKGEVLANNEAGQVTSIIYNPGDVITIVAAGWASYGPTQKWGPQGDREHPDQGLICHDAFCGALVMKIGNSGTIPVNTGLFRWVAPNNVQGAITLIYNDVPGTYGNNSGSFSVNIGKDQS", "values": [
      {"measurement": "Specificity Sugar", "setting": "[1]", "result": "gal"}
    ]}
  ]
}
